Reference: the supplement of paper PMC9170038

Tested on: MS2 coat protein
Test: apparent KD of MS2 coat protein; designed switch direction (-1 OFF switch, 1 ON switch): -1; higher = weaker reporter binding
In short: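 For each design, the apparent KD is the median over clusters of curves fitted to normalised cluster fluorescence. Clusters held RNA switches with common flanks, transcribed on Illumina chips by stalled E. coli RNA polymerase. These were titrated with SNAP-549-labelled MS2 coat protein, doubling from 0.7 or 1.5 nM to 3 µM, without input, with 200 uM small-molecule ligand, or with an oligonucleotide input.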

[1] = Eterna round: R95, input ligand: FMN 200 uM
[2] = Eterna round: R95, input ligand: microRNA oligo, concentration not stated
[3] = Eterna round: R95, input ligand: none
[4] = input ligand: microRNA oligo, concentration not stated

Sequence	apparent KD of MS2 coat protein [2]	apparent KD of MS2 coat protein (input ligand: FMN 200 uM)	apparent KD of MS2 coat protein (input ligand: none)	also measured
GAGAAGGUAGGAUAUACGAAGAAAGAGGGUAGGAAUAAGACACAUGAGGAUCACCCAUGUAGAAGGACCAAGAG [Mat - Exclusion 2 - Mod of my Tesla design - D49] (puzzle: Exclusion 2)	21.2 nM			apparent KD of MS2 coat protein [1]: 32.4 nM; apparent KD of MS2 coat protein [3]: 22.9 nM
GCUCAACAUGAGGAUCACCCAUGUGAGGAUAUGCGAAUUUCAUCAAAAGAUGAAAUUUGCAGAAGGCACUGAGC [Omei Ex1 A35] (Eterna round: R97, puzzle: Exclusion 1)		17.4 nM	16.5 nM	
AUGGUUCGAUUAGGAUAUUAUAGAUUGAAUAGUAUGAUUUACAUGAGGAUCACCCAUGUUACAUAUAAGAAGGAAUCGAAUCAU [JR_ExcNG2_Sub087] (Eterna round: R96, puzzle: Exclusion NG 2)				apparent KD of MS2 coat protein [4]: 11.5 nM
ACAUGACUGCUAGGAUAUAGAUGACAUGAGGAUCACCCAUGUUAUCCCAUGUUGACGGAAACCGACUAGAAGGAGCAACAUAUG [Ex NG2 #8] (Eterna round: R96, puzzle: Exclusion NG 2)		64.7 nM	46.5 nM	apparent KD of MS2 coat protein [4]: 30.6 nM
GUAGAGUGAGGAUAUACAAGAUCGAAAGAUCGGCGAUCCAUACAUGAGGAUCACCCAUGUAGAAGGCACUCUAC [Eli x2 4.007] (Eterna round: R97, puzzle: Exclusion 2)		678 nM	102 nM	
UAUUACGCAAGCAGGUCCCACAUGAGGAUCACCCAUGUGCUCGUCUUAUAACGAUCUGUGGGAAAACCUACGGAUCG [Elimod 19 - Jieux - Sensor, turn-off variant 1] (Eterna round: R97, puzzle: Sensor, turn-off variant 1)		45.8 nM	48.4 nM	
ACAAGCAUUUAGUAAAUGGACAUGAGGAUCACCCAUGUGAGUCCGAAGAGAUAAGAUAUAUUGUCGGCUCGUCUUAU [AK-miRNA-r3-22] (Eterna round: R97, puzzle: Sensor, turn-off variant 1)		55.9 nM	94.8 nM	
UUCAUGUGAGGAUAUAGUACUUCUUCUAUUAUUAUUGAGUACUAGAAGGCACAUGAGGAUCACCCAUGUAGUAC [Ex4 - 3 - 43] (puzzle: Exclusion 4)	39.1 nM			
CCAAGCUUUUUCAUUAACAACAUGAGGAUCACCCAUGUUUAAGCUAUUACUUUUGGGCUCUUUAGUGCUCGUCUUAU [JR_STOV1_Sub040] (Eterna round: R97, puzzle: Sensor, turn-off variant 1)		14.4 nM	13.9 nM	
UAAAAGCUAGGAUAUACAUGAGGAUCACCCAUGUACCGGCUUGGCCCUGGUCCUAAAUGUAGAAGGAGCACGCC [Zarebebi] (puzzle: Exclusion 3)	14.2 nM			
AUUUUGUCAGGAUAUGAGUAGUAGGACGAAAGUGUUAUUAUUUAGAAGGGACAUGAGGAUCACCCAUGUUUCUC [Bring Us a Shrubbery-02] (puzzle: Exclusion 4)	12.2 nM			
CAGUACUGAGGAUAUACAUGAGGAUCACCCAUGUGCUUUAGCUAGGAUACUAGCAUUAGUAGAAGGCAGUACUG [Fiskers Ex 3 828 mod 9] (puzzle: Exclusion 3)	11.3 nM			
UUAAGGGACUGAGGAUAUACAUGAAUUAUUUUUGUAGAAGGCAGAUUGUUAGUUUAUUCACUAUACAUGAGGAUCACCCAUGUU [JR_ExcNG1_Sub020] (Eterna round: R96, puzzle: Exclusion NG 1)				apparent KD of MS2 coat protein [4]: 18.3 nM
AUACUCGUAGGAUAUGGCAAGCUGAACAUGAGGAUCACCCAUGUGUUCUACAGAUCUGGGUUAGAAGGACGUUAUU [Eternabot (L2) Solution 39] (Eterna round: R97, puzzle: Exclusion 5)		49.3 nM	59.7 nM	
CUAUUACGAGGAUAUGAUUUAAAUAACAUGAGGAUCACCCAUGUUUUUACGUUAUUAUGUUUAGAAGGCGUAUUGU [JR_E5_Sub026] (puzzle: Exclusion 5)	43.4 nM			
UGUCCAAUACAGGAUAUUCUCGCGUAGUAGCAAGGAGAAGGGUAGACAUGAGGAUCACCCAUGUGAUUCAUCUG [Eternabot (L2) Solution 68] (Eterna round: R97, puzzle: Exclusion 6)		438 nM	575 nM	
AAAUACAAAGGAUAUACAUGAGGAUCACCCAUGUAGGUCAAUGCGCGGGCGAUGCCACGUAGAAGGUUGAAUAC [EX3 C.12] (Eterna round: R97, puzzle: Exclusion 3)		27.5 nM	24.1 nM	
CGUACAAGCUUACUAUAGGACAUGAGGAUCACCCAUGUAAUUGACGUUGCAUACAAUCCGUGGAUCCCGGCUGCUCG [Eternabot (L1) Solution 15] (Eterna round: R97, puzzle: Sensor, turn-off variant 1)		43 nM	51.6 nM	

Sequence	apparent KD of MS2 coat protein [2]	apparent KD of MS2 coat protein (input ligand: FMN 200 uM)	apparent KD of MS2 coat protein (input ligand: none)	also measured
GGGCCGGCCGGAGGAUAUGCGGCCCGGCCGGCCGGUGGGCCGGCCGGGACAUGAGGAUCACCCAUGUAGAAGGCCGGCCGGCCC [low energy, MS2 in another position, A 14%] (Eterna round: R96, puzzle: Exclusion NG 2)		18.8 nM	15.9 nM	apparent KD of MS2 coat protein [4]: 13.7 nM
AAUAAACAUGAGGAUCACCCAUGUCAGGAUAUACGAAGAAAGAAAGAAAGAAAGAAGAGUAGAAGGGAUAGGAA [Excls1-III] (puzzle: Exclusion 1)	29.3 nM			apparent KD of MS2 coat protein [1]: 31.6 nM; apparent KD of MS2 coat protein [3]: 32.6 nM
AAUAACAGAGGAUAUACUAUUUUAUGUGUUUGUUGUUUUGAACAUGAGGAUCACCCAUGUAGAAGGCUGAGUAA [JMF 40] (puzzle: Exclusion 2)	24.2 nM			
GAUCAUGCAGGAUAUACAGUAUCCAUGAAAACAUGGAUCUCACAUGAGGAUCACCCAUGUAGAAGGGCAUGAUC [Omei Ex2 A25] (Eterna round: R97, puzzle: Exclusion 2)		40.1 nM	41.4 nM	
GACUGCCGAGGAUAUACAUGAGGAUCACCCAUGUGCUUCAGCAUUUAAUAAUGCAUGGGUAGAAGGCGGUAGUC [LRO-Excl3-12] (puzzle: Exclusion 3)	40.5 nM			
AAGUGUCCUAAGGAUAUCGAAGCUAUCGGCUGCCGAGAAGGUAGGACAUGAGGAUCACCCAUGUACCGUGAGCC [Reedor] (puzzle: Exclusion 6)	64.6 nM			
CUGAGGUAGCGGUCCUAUGACAUGAGGAUCACCCAUGUACCUUGCUAUAAGCUUUUUGCUCGUCUUAUGAUUCUCGG [JL Atriat mod 7] (puzzle: Sensor v3, turn-off variant 1)	713 nM			apparent KD of MS2 coat protein [1]: 246 nM; apparent KD of MS2 coat protein [3]: 302 nM
AGCUGUGGCCGAGGAUAUCUAAUAUCCCUAACCGAAAUAUAAUCGGACAUGAGGAUCACCCAUGUAGAGAAGGCGGUCUCAGCA [Eli eng2 - 065] (Eterna round: R96, puzzle: Exclusion NG 2)		211 nM	20.8 nM	apparent KD of MS2 coat protein [4]: 19.3 nM
GGAAAAGCAGGAUAUACAUGAGGAUCACCCAUGUAGGCUCGCCGAGACGUGGAUGGACGUAGAAGGGCUAUUCC [Eternabot (L1) Solution 65] (Eterna round: R97, puzzle: Exclusion 3)		121 nM	28.9 nM	
UUAAAUCAUGUAGGAUAUGCGUGGAGAAACUAUGCAGAAGGACAUGAGGAUCACCCAUGUGCUUCCGUCUGAGAACAGACGGUA [Mat - Exclusion NG 1 - Mod of JL - D14] (Eterna round: R96, puzzle: Exclusion NG 1)		285 nM	57.9 nM	apparent KD of MS2 coat protein [4]: 43.2 nM
AAAAACAGAGGAUAUGCACGCCGACCCGGGCGGGAAGUCGGACAUGAGGAUCACCCAUGUAGAAGGCUGAAAAA [Exclss2-VI] (puzzle: Exclusion 2)	10.5 nM			apparent KD of MS2 coat protein [1]: 13.3 nM; apparent KD of MS2 coat protein [3]: 11.5 nM
UUGGUGUCAGGAUAUGCUUAAUGUAUUUUAUUAUAAUAUAUACAUGAGGAUCACCCAUGUAGAAGGGACAUUGU [LRO-Excl2-08-Fireball XL5] (Eterna round: R97, puzzle: Exclusion 2)		125 nM	154 nM	
CGGCACCGAGGAUAUACAUGAGGAUCACCCAUGUUUGUUGGGCCCUUAAGAUCUACGUGUAGAAGGUGGGUCGA [Edaribi] (Eterna round: R96, puzzle: Exclusion 3)		241 nM	173 nM	apparent KD of MS2 coat protein [4]: 147 nM
AGAUGUAGAUACCGAUCCUACAUGAGGAUCACCCAUGUAGCUAGACGUGCGCGCGUCGCUCGUCAGACUACCAGUAG [salish99_TOv1_r3_092] (puzzle: Sensor v3, turn-off variant 1)	296 nM			apparent KD of MS2 coat protein [1]: 330 nM; apparent KD of MS2 coat protein [3]: 157 nM
AAAAUAAAAGCAGGAUAUCGACCUCCCAAGUGGCGAGAAGGGCUAGACGGGCGGUCUAACAUGAGGAUCACCCAUGUCAACAAA [Soorante] (Eterna round: R96, puzzle: Exclusion NG 1)		93.4 nM	34.7 nM	apparent KD of MS2 coat protein [4]: 23.5 nM
GGAAUACAUGAGGAUCACCCAUGUAAGGAUAUGCUGAAUAUCACGGAAUAAACGUGCAGCAGAAGGUACAAAGG [Mat - Mod of my Eli Mod D46] (puzzle: Exclusion 1)	65.9 nM			apparent KD of MS2 coat protein [1]: 103 nM; apparent KD of MS2 coat protein [3]: 93.6 nM
AAACGGCAGGGAGGAUAUGCUUACCUGGGUCGUCUUCAGACAUGAGGAUCACCCAUGUAGUCGACGCAGAAGGCCCUCAAAGCC [JL ViennaUCT Ontiis mod 3] (Eterna round: R96, puzzle: Exclusion NG 2)		413 nM	51.1 nM	apparent KD of MS2 coat protein [4]: 38.7 nM
